Target: αMβ2 expressed on K562 cells (human) (UniProt P11215)
Assay: flow cytometry on cells; αMβ2/K562 cells, 45 min with 10 μg/ml Alexa Fluor 488-iC3b and 0, 1, 5 or 10 μg/ml hCD11bNb1; 1 mM Ca2+ and 1 mM Mg2+, with or without 1 mM Mn2+

Work on “Alexa Fluor 488-conjugated iC3b (from UniProt P01024 23-667; P01024 1321-1663) (ligand)” yielded a fold increase of iC3b* binding in the presence of hCD11bNb1 against none of 2 fold.

From paper PMC9287160
